What was measured:
Assay in all cases: human serum on Con A/WGA/Jacalin column, lectin-specific displacer fraction, LC-MS/MS; grade = SEQUEST rank group (+ = ranks 1-5, ++++ = 16-20)
[1] = target: T1, HAPTOGLOBIN-RELATED PROTEIN (human, UniProt P00739 1-348, limits assumed)
T1 construct: from human serum; also called HPTR
T1 sequence (looked up): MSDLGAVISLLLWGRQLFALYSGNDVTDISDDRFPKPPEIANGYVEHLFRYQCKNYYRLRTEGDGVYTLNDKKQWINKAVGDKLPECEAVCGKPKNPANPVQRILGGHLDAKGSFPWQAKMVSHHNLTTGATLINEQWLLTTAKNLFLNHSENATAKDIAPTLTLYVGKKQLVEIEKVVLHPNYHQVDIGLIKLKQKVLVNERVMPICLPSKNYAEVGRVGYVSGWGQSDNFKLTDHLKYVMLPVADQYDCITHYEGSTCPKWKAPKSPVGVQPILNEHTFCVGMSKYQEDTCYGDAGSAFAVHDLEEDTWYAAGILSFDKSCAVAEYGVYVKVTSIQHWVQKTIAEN

[2] = target: T2, IG ALPHA-1 CHAIN C REGION (human, UniProt P01876-1 1-353)
T2 construct: domain: C region; Polyclonal serum IgA, identified through its constant region; variable regions and light chains not defined; also called ALC1
T2 sequence (P01876 other isoform, or with tags, fused parts or gaps limits assumed): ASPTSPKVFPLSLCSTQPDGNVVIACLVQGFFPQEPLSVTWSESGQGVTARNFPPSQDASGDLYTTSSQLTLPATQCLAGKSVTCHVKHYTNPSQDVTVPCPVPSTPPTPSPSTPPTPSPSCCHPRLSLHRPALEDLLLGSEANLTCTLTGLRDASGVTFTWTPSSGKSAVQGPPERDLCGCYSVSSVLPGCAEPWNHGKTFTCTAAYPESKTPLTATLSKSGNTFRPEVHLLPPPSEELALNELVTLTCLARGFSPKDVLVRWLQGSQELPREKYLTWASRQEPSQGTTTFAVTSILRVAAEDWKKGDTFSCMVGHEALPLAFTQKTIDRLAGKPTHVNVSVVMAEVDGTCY

[3] = target: T3, PLASMA PROTEASE C1 INHIBITOR (human, UniProt P05155 23-500)
T3 construct: from human serum; also called IC1
T3 sequence (looked up): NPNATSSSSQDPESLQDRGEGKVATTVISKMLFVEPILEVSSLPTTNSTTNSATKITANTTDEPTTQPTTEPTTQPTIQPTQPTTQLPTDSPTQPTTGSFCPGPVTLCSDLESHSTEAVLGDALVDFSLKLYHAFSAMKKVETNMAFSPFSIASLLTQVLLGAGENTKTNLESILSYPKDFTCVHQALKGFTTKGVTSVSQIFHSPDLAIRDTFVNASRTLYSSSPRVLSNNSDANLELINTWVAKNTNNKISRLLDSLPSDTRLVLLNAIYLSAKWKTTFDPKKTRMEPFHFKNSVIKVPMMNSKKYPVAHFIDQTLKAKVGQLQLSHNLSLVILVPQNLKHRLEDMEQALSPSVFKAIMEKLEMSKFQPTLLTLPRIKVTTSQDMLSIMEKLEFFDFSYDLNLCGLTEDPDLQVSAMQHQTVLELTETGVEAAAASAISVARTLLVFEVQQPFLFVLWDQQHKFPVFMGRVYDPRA

[4] = target: T4, ALPHA-2-MACROGLOBULIN (human, UniProt P01023 24-1474)
T4 construct: also called A2MG; α2-macroglobulin
T4 sequence (looked up): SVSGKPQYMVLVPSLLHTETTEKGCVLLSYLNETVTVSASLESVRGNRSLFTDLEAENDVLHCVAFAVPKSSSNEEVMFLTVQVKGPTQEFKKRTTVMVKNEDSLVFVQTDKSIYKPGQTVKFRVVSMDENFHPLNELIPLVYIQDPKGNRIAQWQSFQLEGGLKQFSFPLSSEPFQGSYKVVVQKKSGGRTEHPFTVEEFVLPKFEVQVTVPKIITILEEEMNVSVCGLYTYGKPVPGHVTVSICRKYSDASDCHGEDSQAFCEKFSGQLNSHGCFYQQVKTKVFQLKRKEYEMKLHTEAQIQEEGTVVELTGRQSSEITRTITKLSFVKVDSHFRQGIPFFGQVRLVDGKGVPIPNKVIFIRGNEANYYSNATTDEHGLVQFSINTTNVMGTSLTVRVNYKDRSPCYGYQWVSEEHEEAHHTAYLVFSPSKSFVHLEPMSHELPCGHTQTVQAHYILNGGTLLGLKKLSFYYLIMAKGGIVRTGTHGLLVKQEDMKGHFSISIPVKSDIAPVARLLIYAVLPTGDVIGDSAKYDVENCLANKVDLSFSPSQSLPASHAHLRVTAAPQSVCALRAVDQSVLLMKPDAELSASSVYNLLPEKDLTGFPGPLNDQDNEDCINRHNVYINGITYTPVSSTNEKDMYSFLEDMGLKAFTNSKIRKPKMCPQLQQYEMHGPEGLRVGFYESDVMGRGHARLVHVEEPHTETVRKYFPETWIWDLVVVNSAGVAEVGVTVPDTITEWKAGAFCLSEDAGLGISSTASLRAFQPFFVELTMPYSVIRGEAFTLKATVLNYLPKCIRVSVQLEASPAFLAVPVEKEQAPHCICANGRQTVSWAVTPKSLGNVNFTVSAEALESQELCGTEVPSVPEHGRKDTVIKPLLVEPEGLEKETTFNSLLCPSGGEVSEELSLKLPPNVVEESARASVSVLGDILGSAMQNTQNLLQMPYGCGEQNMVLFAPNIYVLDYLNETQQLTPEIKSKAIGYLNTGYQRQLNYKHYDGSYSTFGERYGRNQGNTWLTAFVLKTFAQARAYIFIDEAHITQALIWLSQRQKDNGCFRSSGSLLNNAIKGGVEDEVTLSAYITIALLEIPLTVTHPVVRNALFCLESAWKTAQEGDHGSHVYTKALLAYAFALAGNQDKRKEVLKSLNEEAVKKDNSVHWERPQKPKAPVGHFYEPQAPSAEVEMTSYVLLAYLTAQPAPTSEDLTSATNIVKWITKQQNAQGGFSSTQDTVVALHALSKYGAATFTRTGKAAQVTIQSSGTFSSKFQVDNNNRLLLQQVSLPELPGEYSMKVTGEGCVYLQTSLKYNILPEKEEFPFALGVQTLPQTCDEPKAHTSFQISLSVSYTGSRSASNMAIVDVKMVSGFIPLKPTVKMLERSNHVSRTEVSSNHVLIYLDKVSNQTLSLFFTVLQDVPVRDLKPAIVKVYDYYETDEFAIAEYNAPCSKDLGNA

B1: wheat germ agglutinin (WGA), agarose-bound (other, UniProt P10968 27-197, looked up)
chain: QRCGEQGSNMECPNNLCCSQYGYCGMGGDYCGKGCQNGACWTSKRCGSQAGGATCTNNQCCSQYGYCGFGAEYCGAGCQGGPCRADIKCGSQAGGKLCPNNLCCSQWGFCGLGSEFCGGGCQSGACSTDKPCGKDAGGRVCTNNYCCSKWGSCGIGPGYCGAGCQSGGCDG
modifications: immobilized on agarose
notes: Lectin; released with N-acetyl-glucosamine; Coated on the plate in the lectin ELISA
- SEQUEST ranking (relative abundance in the WGA displacement fraction) [1]: 1 to 5 rank
- SEQUEST ranking (relative abundance in the WGA displacement fraction) [2]: 1 to 5 rank
- SEQUEST ranking (relative abundance in the WGA displacement fraction) [3]: 16 to 20 rank
- SEQUEST ranking (relative abundance in the WGA displacement fraction) [4]: 1 to 5 rank
